From US20130101557A1 come the findings set out here.

The assay concerns the target vascular endothelial growth factor (VEGF) (human) (UniProt P15692). Kind of assay: cell-based or functional assay.
Sequence of UniProt P15692 (P15692 other isoform, or with tags, fused parts or gaps limits assumed): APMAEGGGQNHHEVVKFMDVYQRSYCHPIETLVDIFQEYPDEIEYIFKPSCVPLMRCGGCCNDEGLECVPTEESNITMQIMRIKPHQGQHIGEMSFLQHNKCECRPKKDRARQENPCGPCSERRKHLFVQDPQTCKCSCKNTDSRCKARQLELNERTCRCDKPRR

Regarding KH903 (Fc fusion), the viability of HUVECs 72 h after infection with 30 MOI dE1-k35/KH903 (MTT assay), decrease against non-treated group is 53%.
